Results published in the supplement of paper PMC9112550, “Optimization of the antimicrobial peptide Bac7 by deep mutational scanning” (BMC Biology, 2022).

Test system: Escherichia coli TOP10
Test: shrunken log2 fold change of peptide-encoding DNA abundance (4.5 h post-induction vs induction); higher = less antimicrobial activity (less host growth inhibition)
Conditions: time post-induction: 4.5 h; library: site-saturation at positions 5, 18, 19, 20
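Also: peptides expressed intracellularly from a pBAD plasmid library in pooled LB shake-flask culture, induced with 0.3% L-arabinose, DNA abundance read by NGS, three biological replicates, DESeq2 with apeglm shrinkage.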

Going from RRIRVRPPRLPRPRPRPFPYPRP to RRIRLRPPRLPRPRPRPEVIPRP, the “shrunken log2 fold change” value rises from -0.277 to 0.178.

RRIRMRPPRLPRPRPRPWAWPRP and RRIRRRPPRLPRPRPRPLDQPRP are within 0.2 log units of each other in “shrunken log2 fold change” value: -0.0978 for the first, -0.0226 for the second.

RRIRWRPPRLPRPRPRPLTNPRP and RRIRNRPPRLPRPRPRPPNSPRP are within 0.2 log units of each other in “shrunken log2 fold change” value: -0.114 for the first, -0.072 for the second.

First: RRIRKRPPRLPRPRPRPGQNPRP
Second: RRIRTRPPRLPRPRPRPMDVPRP
The “shrunken log2 fold change” value of the first is higher: 0.0264 for the first, -0.303 for the second.

Going from RRIRTRPPRLPRPRPRPQDHPRP to RRIRIRPPRLPRPRPRPNAKPRP, the “shrunken log2 fold change” value rises from -0.805 to 0.0022.

RRIRQRPPRLPRPRPRPNSQPRP and RRIRDRPPRLPRPRPRPGTHPRP are within 0.2 log units of each other in “shrunken log2 fold change” value: 0.229 for the first, 0.129 for the second.

First: RRIRWRPPRLPRPRPRPYRNPRP
Second: RRIRKRPPRLPRPRPRPNSVPRP
The “shrunken log2 fold change” value of the first is lower: -0.552 for the first, 0.0305 for the second.

Compared with RRIRPRPPRLPRPRPRPYNEPRP, RRIRPRPPRLPRPRPRPHWYPRP is higher in “shrunken log2 fold change” value: -0.458 for the first, -0.165 for the second.

RRIRLRPPRLPRPRPRPVFMPRP and RRIRQRPPRLPRPRPRPNYAPRP are within 0.2 log units of each other in “shrunken log2 fold change” value: -0.203 for the first, -0.0208 for the second.

Going from RRIRCRPPRLPRPRPRPTWHPRP to RRIRSRPPRLPRPRPRPSGHPRP, the “shrunken log2 fold change” value falls from 0.00453 to -0.433.

Compared with RRIRVRPPRLPRPRPRPVVIPRP, RRIRGRPPRLPRPRPRPPMDPRP is higher in “shrunken log2 fold change” value: -0.401 for the first, 0.597 for the second.

First: RRIRYRPPRLPRPRPRPTAYPRP
Second: RRIRNRPPRLPRPRPRPIGWPRP
The “shrunken log2 fold change” value of the first is lower: -0.537 for the first, 0.115 for the second.

Going from RRIRNRPPRLPRPRPRPVDSPRP to RRIRGRPPRLPRPRPRPWERPRP, the “shrunken log2 fold change” value rises from -0.196 to 0.0531.

RRIRIRPPRLPRPRPRPSHEPRP and RRIRNRPPRLPRPRPRPGNSPRP are within 0.2 log units of each other in “shrunken log2 fold change” value: -0.159 for the first, -0.0208 for the second.

RRIRVRPPRLPRPRPRPQQQPRP and RRIRCRPPRLPRPRPRPSKRPRP are within 0.2 log units of each other in “shrunken log2 fold change” value: 0.0503 for the first, -0.12 for the second.

First: RRIRWRPPRLPRPRPRPAWYPRP
Second: RRIRVRPPRLPRPRPRPEMYPRP
The “shrunken log2 fold change” value of the first is higher: 0.0415 for the first, -0.19 for the second.

Compared with RRIRTRPPRLPRPRPRPGHLPRP, RRIRNRPPRLPRPRPRPDEIPRP is higher in “shrunken log2 fold change” value: -0.377 for the first, -0.043 for the second.

First: RRIRKRPPRLPRPRPRPMVWPRP
Second: RRIRHRPPRLPRPRPRPVSFPRP
The “shrunken log2 fold change” value of the first is higher: 0.722 for the first, 0.00493 for the second.

RRIRQRPPRLPRPRPRPMKRPRP and RRIRHRPPRLPRPRPRPMAEPRP are within 0.2 log units of each other in “shrunken log2 fold change” value: -0.111 for the first, -0.165 for the second.

RRIRLRPPRLPRPRPRPGLQPRP and RRIRARPPRLPRPRPRPLYKPRP are within 0.2 log units of each other in “shrunken log2 fold change” value: -0.166 for the first, -0.362 for the second.

Going from RRIRARPPRLPRPRPRPCGTPRP to RRIRFRPPRLPRPRPRPHILPRP, the “shrunken log2 fold change” value falls from 0.475 to -0.345.

Going from RRIRSRPPRLPRPRPRPACAPRP to RRIRYRPPRLPRPRPRPDNIPRP, the “shrunken log2 fold change” value falls from 0.482 to 0.0653.

First: RRIRTRPPRLPRPRPRPPCKPRP
Second: RRIRWRPPRLPRPRPRPHNLPRP
The “shrunken log2 fold change” value of the first is higher: -0.193 for the first, -0.414 for the second.

RRIRKRPPRLPRPRPRPGVKPRP and RRIRSRPPRLPRPRPRPSTFPRP are within 0.2 log units of each other in “shrunken log2 fold change” value: 0.0127 for the first, -0.109 for the second.

Going from RRIRDRPPRLPRPRPRPYNDPRP to RRIRLRPPRLPRPRPRPRRIPRP, the “shrunken log2 fold change” value rises from -0.307 to 0.214.

RRIRTRPPRLPRPRPRPMMTPRP and RRIRWRPPRLPRPRPRPANMPRP are within 0.2 log units of each other in “shrunken log2 fold change” value: 0.0356 for the first, -0.0899 for the second.

First: RRIRHRPPRLPRPRPRPEGDPRP
Second: RRIRCRPPRLPRPRPRPAQAPRP
The “shrunken log2 fold change” value of the first is higher: 0.383 for the first, 0.147 for the second.

Compared with RRIRERPPRLPRPRPRPPQAPRP, RRIRMRPPRLPRPRPRPCGLPRP is higher in “shrunken log2 fold change” value: 0.154 for the first, 0.533 for the second.

Compared with RRIRSRPPRLPRPRPRPAAQPRP, RRIRTRPPRLPRPRPRPFKKPRP is lower in “shrunken log2 fold change” value: 0.833 for the first, -0.102 for the second.

First: RRIRRRPPRLPRPRPRPTMMPRP
Second: RRIRLRPPRLPRPRPRPNSLPRP
The “shrunken log2 fold change” value of the first is higher: 0.167 for the first, -0.101 for the second.

Going from RRIRGRPPRLPRPRPRPGSMPRP to RRIRGRPPRLPRPRPRPCCVPRP, the “shrunken log2 fold change” value rises from 0.305 to 0.751.

Going from RRIRTRPPRLPRPRPRPTNNPRP to RRIRRRPPRLPRPRPRPSLSPRP, the “shrunken log2 fold change” value rises from -0.618 to 2.85.

RRIRHRPPRLPRPRPRPYEVPRP and RRIRFRPPRLPRPRPRPCGIPRP are within 0.2 log units of each other in “shrunken log2 fold change” value: 0.028 for the first, -0.168 for the second.

Going from RRIRDRPPRLPRPRPRPSWPPRP to RRIRIRPPRLPRPRPRPVPRPRP, the “shrunken log2 fold change” value falls from 0.399 to 0.0562.

Compared with RRIRRRPPRLPRPRPRPIRDPRP, RRIRWRPPRLPRPRPRPWCDPRP is lower in “shrunken log2 fold change” value: 0.196 for the first, -0.0997 for the second.

Compared with RRIRYRPPRLPRPRPRPRNMPRP, RRIRARPPRLPRPRPRPMDHPRP is higher in “shrunken log2 fold change” value: -0.56 for the first, 0.267 for the second.

RRIRYRPPRLPRPRPRPRYLPRP and RRIRLRPPRLPRPRPRPMPKPRP are within 0.2 log units of each other in “shrunken log2 fold change” value: -0.176 for the first, -0.105 for the second.

With RRIRCRPPRLPRPRPRPEPDPRP the “shrunken log2 fold change” value was 0.307.
